Reference: publication PMC4737671 (International Journal of Biological Sciences, 2016)

Target: the molecule itself
Assay: atomic force microscopy

B1: BRCA1 281-701aa (domain or fragment, human, UniProt P38398 281-701, looked up)
chain: SSLQHENSSLLLTKDRMNVEKAEFCNKSKQPGLARSQHNRWAGSKETCNDRRTPSTEKKVDLNADPLCERKEWNKQKLPCSENPRDTEDVPWITLNSSIQKVNEWFSRSDELLGSDDSHDGESESNAKVADVLDVLNEVDEYSGSSEKIDLLASDPHEALICKSERVHSKSVESNIEDKIFGKTYRKKASLPNLSHVTENLIIGAFVTEPQIIQERPLTNKLKRKRRPTSGLHPEDFIKKADLAVQKTPEMINQGTNQTEQNGQVMNITNSGHENKTKGDSIQNEKNPNPIESLEKESAFKTKAEPISSSISNMELELNIHNSKAPKKNRLRRKSSTRHIHALELVVSRNLSPPNCTELQIDSCSSSEEIKKKKYNQMPVRHSRNLQLMEGKEPATGAKKSNKPNEQTSKRHDSDTFPELK
- binding result: binds

B2: BRCA1 fragment 421-988aa (domain or fragment, human, UniProt P38398 421-988, looked up)
chain: EYSGSSEKIDLLASDPHEALICKSERVHSKSVESNIEDKIFGKTYRKKASLPNLSHVTENLIIGAFVTEPQIIQERPLTNKLKRKRRPTSGLHPEDFIKKADLAVQKTPEMINQGTNQTEQNGQVMNITNSGHENKTKGDSIQNEKNPNPIESLEKESAFKTKAEPISSSISNMELELNIHNSKAPKKNRLRRKSSTRHIHALELVVSRNLSPPNCTELQIDSCSSSEEIKKKKYNQMPVRHSRNLQLMEGKEPATGAKKSNKPNEQTSKRHDSDTFPELKLTNAPGSFTKCSNTSELKEFVNPSLPREEKEEKLETVKVSNNAEDPKDLMLSGERVLQTERSVESSSISLVPGTDYGTQESISLLEVSTLGKAKTEPNKCVSQCAAFENPKGLIHGCSKDNRNDTEGFKYPLGHEVNHSRETSIEMEESELDAQYLQNTFKVSKRQSFAPFSNPGNAEEECATFSAHSGSLKKQSPKVTFECEQKEENQGKNESNIKPVQTVNITAGFPVVGQKDKPVDNAKCSIKGGSRFCLSSQFRGNETGLITPNKHGLLQNPYRIPPLFPIKS
- stoichiometry N: 2
